Laboratory results reported in US11787839B2, “Targeting α2δ-1-bound glutamate receptors for treating diseases and disorders” (Board of Regents, The University of Texas System, priority 2017, dated 2023).
“Also recorded” adds a separate entry of the source.

Legend:
[1] = system: surface GluN1, GluN2A, GluN2B; assay: HEK293 cell membrane surface protein analysis (biotinylation); assay type: cell-based, rat; set-up: dose or concentration left out as unconfirmed; conditions: gabapentin for 60 min
Protocol: Isolation and analysis of HEK293 cell membrane surface proteins: HEK293 cells were transfected with GluN1-1a, GluN2A/GluN2B and/or α2δ-1 after they had grown to 80-90% confluence in 75-cm^2 culture flasks. Cell surface biotinylation was performed using the Pierce Cell Surface Protein Isolation Kit (#89881, Thermo Fisher Scientific) according to the manufacturer's instructions. Briefly, cells were incubated with Sulfo-NHS—SS-biotin, which covalently binds to primary amino groups of extracellular proteins at 4° C. with constant rotation for 30 min. Excess biotin was quenched with quenching solution (Chaplan et al., 1997). The cells were washed, harvested by gentle scraping and lysed using the provided lysis buffer in the cocktail of protease and phosphatase inhibitors (#78440, Thermo Fisher Scientific) for 30 min at 4° C. The lysates were then centrifuged for 2 min at 10,000×g at 4° C., and the clear supernatants were added to NeutrAvidin agarose and incubated for 60 min at 25° C. with end-over-end mixing. The unbound (unbiotinylated) proteins, representing the intracellular fraction, were separated from the captured surface proteins by centrifugation of the column. […] Protein bands were quantified using Image Studio software (version 3.1, LI-COR Biosciences).

[2] = target: T1, α2δ-1-GluN1 interaction (Rattus norvegicus, UniProt P35439+Q00959); assay type: cell-based; conditions: HEK293; 0.01, 0.1, or 1 mM peptide
T1 construct: expressed in transfected cells; host or cells: HEK293
T1 sequence (Q00959 23-1464, other chains not shown): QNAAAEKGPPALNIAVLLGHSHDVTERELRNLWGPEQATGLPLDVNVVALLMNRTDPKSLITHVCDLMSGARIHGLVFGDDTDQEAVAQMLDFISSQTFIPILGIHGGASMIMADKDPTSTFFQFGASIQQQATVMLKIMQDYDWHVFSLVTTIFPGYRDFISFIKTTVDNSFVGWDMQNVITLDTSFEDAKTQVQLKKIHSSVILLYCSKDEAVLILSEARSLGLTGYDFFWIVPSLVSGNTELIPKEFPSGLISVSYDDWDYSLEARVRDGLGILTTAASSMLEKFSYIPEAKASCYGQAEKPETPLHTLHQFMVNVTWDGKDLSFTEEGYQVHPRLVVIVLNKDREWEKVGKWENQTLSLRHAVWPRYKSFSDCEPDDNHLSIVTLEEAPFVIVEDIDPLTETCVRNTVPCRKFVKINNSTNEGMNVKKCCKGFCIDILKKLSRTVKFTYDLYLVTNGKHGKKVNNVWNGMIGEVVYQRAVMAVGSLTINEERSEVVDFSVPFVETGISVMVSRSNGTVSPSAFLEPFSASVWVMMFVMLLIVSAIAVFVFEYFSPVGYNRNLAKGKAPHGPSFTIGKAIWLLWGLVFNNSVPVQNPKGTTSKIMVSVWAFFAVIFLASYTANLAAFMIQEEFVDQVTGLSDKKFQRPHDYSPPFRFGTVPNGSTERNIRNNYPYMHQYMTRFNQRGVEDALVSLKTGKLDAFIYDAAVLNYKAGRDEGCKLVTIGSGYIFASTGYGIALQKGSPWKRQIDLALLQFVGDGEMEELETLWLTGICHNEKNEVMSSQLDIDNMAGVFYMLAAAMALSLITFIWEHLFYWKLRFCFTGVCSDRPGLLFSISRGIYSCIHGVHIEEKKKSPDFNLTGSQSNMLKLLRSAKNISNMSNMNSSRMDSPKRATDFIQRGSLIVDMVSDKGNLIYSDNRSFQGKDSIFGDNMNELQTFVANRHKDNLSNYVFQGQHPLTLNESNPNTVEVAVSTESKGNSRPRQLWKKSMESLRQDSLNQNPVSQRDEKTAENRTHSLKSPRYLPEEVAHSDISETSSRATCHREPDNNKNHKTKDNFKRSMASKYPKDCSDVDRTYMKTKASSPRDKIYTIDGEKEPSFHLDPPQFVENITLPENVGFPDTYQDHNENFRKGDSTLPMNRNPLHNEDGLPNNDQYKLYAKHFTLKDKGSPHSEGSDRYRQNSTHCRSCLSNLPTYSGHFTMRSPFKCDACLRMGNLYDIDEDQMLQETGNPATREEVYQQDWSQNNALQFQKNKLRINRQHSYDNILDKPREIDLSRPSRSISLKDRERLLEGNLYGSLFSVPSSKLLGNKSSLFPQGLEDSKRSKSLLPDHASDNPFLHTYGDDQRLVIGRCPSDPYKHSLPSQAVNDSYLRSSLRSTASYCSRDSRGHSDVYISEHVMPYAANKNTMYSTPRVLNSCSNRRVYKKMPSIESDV

[3] = target: T2, α2δ-1 and NMDAR subunits in spinal cord synaptosomes (Rattus norvegicus, UniProt P35439+Q00959+Q00960); assay: Protein levels in spinal cord synaptosomes of treated slices (SNL, sham); assay type: cell-based; conditions: SNL rats; slices treated 30 min
T2 construct: from tissue; host or cells: rat lumbar spinal cord slices (lamina II neurons) and synaptosomes made from them
Protocol: PSD-95, a known postsynaptic protein, was used as an internal control.
Spinal cord synaptosome preparation: The spinal cord slices were pooled from 2 rats and were homogenized using glass-Teflon homogenizer in 10 volumes of ice-cold HEPES-buffered sucrose (0.32 M sucrose, 1 mM EGTA, and 4 mM HEPES at pH 7.4) containing the protease inhibitor cocktail (Sigma-Aldrich). The homogenate was centrifuged at 1,000×g for 10 min at 4° C. to remove the nuclei and large debris. […] The synaptosomal pellet was lysed via hypo-osmotic shock in 9 volumes of ice-cold HEPES-buffer with the protease inhibitor cocktail for 30 min. The lysate was centrifuged at 25,000×g for 20 min at 4° C. to obtain the synaptosomal membrane fraction, which was then dissolved in sodium dodecyl sulfate sample buffer at a final concentration of 0.25 μg/μl for immunoblotting. […] The α2δ-1Tat peptide and scrambled control peptide were synthesized by Bio Basic Inc. (Marham, Ontario, Canada) and validated by using liquid chromatography and mass spectrometry.

[4] = target: T3, NMDARs of RVLM-projecting PVN neurons (Rattus norvegicus, UniProt P35439+Q00959+Q00960); assay: Recordings of RVLM-projecting PVN neurons in slices of WKY rats and SHRs; assay type: cell-based
T3 construct: from tissue; host or cells: rat hypothalamic slices containing the PVN (Sprague-Dawley, WKY, SHR) and synaptosomes made from them
T3 sequence (Q00959 20-1464 limits assumed, other chains not shown): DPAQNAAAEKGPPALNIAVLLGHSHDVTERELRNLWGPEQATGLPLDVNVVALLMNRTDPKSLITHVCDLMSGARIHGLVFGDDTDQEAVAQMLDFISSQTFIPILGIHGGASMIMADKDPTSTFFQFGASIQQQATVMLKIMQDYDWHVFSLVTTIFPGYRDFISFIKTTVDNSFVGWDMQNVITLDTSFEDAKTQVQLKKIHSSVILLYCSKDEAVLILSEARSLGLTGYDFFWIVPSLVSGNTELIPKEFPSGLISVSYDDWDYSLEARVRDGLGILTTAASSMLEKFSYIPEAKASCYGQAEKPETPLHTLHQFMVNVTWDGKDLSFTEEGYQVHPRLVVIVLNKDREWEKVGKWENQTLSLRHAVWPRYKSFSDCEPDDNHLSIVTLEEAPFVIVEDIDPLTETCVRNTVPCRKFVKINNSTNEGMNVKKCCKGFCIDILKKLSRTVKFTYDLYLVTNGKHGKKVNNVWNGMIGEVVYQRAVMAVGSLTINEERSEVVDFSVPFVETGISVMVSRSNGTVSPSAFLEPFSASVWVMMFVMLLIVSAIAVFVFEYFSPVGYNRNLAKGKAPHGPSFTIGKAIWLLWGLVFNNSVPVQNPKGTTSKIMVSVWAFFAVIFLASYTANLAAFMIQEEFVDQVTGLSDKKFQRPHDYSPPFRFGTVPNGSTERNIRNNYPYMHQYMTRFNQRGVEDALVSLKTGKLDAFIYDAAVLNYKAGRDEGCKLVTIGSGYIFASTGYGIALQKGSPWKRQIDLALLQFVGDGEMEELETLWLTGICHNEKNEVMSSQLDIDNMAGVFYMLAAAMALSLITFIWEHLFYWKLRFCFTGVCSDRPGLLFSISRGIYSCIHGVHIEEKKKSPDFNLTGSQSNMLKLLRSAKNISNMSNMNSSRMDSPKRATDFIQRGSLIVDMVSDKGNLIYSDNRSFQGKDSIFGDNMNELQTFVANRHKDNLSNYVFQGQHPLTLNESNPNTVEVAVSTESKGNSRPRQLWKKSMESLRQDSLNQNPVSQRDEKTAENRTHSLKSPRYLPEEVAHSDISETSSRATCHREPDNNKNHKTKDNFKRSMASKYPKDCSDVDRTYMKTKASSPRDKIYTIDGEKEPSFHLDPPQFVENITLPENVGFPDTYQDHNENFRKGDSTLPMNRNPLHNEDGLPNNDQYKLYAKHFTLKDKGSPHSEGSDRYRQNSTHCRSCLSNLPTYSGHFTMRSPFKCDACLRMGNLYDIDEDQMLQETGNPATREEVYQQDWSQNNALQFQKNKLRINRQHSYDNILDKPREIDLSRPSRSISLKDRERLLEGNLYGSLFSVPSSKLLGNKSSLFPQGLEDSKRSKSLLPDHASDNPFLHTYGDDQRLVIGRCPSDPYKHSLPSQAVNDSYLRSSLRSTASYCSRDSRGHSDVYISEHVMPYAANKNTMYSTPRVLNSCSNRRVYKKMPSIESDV
T3 sequence (Q00960 27-1482, other chains not shown): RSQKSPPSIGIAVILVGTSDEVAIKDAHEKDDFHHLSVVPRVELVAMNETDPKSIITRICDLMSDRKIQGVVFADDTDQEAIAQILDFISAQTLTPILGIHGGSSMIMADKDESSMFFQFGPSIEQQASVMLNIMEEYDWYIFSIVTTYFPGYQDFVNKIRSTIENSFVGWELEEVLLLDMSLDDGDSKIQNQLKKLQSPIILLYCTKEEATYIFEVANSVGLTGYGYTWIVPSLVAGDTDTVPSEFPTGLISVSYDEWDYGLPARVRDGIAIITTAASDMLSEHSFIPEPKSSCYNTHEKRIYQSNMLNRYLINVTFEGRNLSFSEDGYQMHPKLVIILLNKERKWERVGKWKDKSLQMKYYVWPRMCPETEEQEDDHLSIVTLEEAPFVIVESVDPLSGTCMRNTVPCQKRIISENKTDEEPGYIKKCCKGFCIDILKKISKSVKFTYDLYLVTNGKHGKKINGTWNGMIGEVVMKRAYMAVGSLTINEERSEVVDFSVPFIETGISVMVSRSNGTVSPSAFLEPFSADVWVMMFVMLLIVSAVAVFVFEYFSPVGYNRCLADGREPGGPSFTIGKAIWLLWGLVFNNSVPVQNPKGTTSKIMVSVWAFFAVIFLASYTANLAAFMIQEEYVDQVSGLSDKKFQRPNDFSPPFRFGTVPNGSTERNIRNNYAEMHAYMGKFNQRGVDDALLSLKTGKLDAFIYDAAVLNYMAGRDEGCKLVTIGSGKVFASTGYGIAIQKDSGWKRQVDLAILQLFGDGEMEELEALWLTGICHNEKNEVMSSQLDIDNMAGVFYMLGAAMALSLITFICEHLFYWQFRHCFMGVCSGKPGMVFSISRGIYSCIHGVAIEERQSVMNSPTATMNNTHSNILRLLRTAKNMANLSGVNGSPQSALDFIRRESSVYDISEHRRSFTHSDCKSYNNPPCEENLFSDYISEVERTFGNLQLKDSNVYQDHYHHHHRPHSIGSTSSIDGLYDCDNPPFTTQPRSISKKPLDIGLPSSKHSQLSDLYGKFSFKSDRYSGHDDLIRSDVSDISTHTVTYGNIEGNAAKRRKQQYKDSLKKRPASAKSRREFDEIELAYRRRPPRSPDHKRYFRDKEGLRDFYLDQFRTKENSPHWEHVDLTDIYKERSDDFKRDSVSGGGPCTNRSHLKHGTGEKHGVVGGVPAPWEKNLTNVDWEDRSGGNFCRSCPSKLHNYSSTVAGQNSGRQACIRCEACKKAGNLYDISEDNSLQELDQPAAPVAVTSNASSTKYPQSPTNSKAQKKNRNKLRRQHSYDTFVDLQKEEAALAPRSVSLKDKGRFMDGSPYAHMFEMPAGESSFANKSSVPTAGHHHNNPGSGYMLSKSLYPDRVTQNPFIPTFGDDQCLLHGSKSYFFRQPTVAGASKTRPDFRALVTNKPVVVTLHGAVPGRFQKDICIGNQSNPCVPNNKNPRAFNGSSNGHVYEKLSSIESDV

[5] = target: T4, presynaptic NMDARs of spinal dorsal horn neurons (Rattus norvegicus, UniProt P35439+Q00959+Q00960); assay: Spinal cord slice recordings, morphine-treated rats; assay type: cell-based; conditions: AP5 50 μM, gabapentin 100 μM
T4 construct: from tissue; host or cells: rat lumbar spinal cord slices (lamina II neurons) and synaptosomes made from them
Protocol: Spinal cord slice preparation and electrophysiological recordings: The lumbar spinal cord was rapidly removed through laminectomy from the animals anesthetized with isoflurane. […] The spinal cord tissue was then placed in a shallow groove formed in an agar block and glued onto the stage of a vibratome (Leica, Germany).
All signals were recorded using an amplifier (MultiClamp700B; Axon Instruments Inc., Union City, Calif.), filtered at 1-2 kHz, and digitized at 10 kHz.

Row | Compound | surface protein levels of GluN1, GluN2A and GluN2B increased by α2δ-1 coexpression [1] | direct interaction between α2δ-1 and GluN1 [2] | increased protein levels of GluN1, GluN2A, GluN2B and α2δ-1 in spinal cord synaptosomes [3] | puff NMDA currents of labelled PVN neurons ([4]; SHRs) | ratio of NMDAR-EPSCs to AMPAR-EPSCs ([4]; SHRs) | baseline frequency of mEPSCs of labelled PVN neurons ([4]; SHRs, AP5 50 μmol L-1, gabapentin 100 μmol L-1, peptides 1 μmol L-1, 60 min) | amplitude of evoked NMDAR-EPSCs of labelled PVN neurons ([4]; SHRs, gabapentin 100 μmol L-1, peptides 1 μmol L-1, 60 min) | amplitude of puff NMDA currents ([4]; WKY rats) | frequency or amplitude of mEPSCs of labelled PVN neurons ([4]; WKY rats) | ratio of NMDAR-EPSCs to AMPAR-EPSCs ([4]; WKY rats) | amplitude of evoked AMPAR-EPSCs of labelled PVN neurons ([4]; WKY rats or SHRs) | amplitude of evoked NMDAR-EPSCs of labelled PVN neurons ([4]; WKY rats, gabapentin 100 μmol L-1, peptides 1 μmol L-1, 60 min) | frequency of mEPSCs in dorsal horn neurons ([5]; peptide 1 μM for 60 min) | amplitude of monosynaptic evoked EPSCs ([5]; peptides 1 μM for 60 min)
1 | NCC1(CC(=O)O)CCCCC1 [gabapentin] | normalized; also recorded: reversed | – | – | – | – | – | – | – | – | – | – | – | – | –
2 | YGRKKRRQRRRVSGLNPSLWSIFGLQFILLWLVSGSRHYLW (a2d1 peptide) [α2δ-1Tat peptide, 30-amino-acid peptide mimicking the C-terminal domain of α2δ-1 fused to the cell-penetrating peptide Tat] | – | disrupted | largely normalized | restored | normalized | completely normalized | fully normalized | had no effect | had no effect | had no effect | had no effect | had no effect | significantly reduced | normalized
